Measurements published in US20240376221A1.

Key:
[1] = biological target: recombinant cynomolgus monkey OX40 (Acro Biosystems, cat. no. OXO-C5220) (cynomolgus monkey); test: BLI, Ab on AHC sensor, OX40 analyte
[2] = biological target: recombinant human OX40 (Acro Biosystems, cat. no. OXO-H5224) (human) (UniProt P43489); test: BLI, Ab on AHC sensor, OX40 analyte
[3] = biological target: human OX40, cell surface-expressed (human) (UniProt P43489); test: flow cytometry, HEK293F cells with human OX40
[4] = biological target: human OX40, cell surface-expressed (human) (UniProt P43489); test: flow cytometry, ExpiCHO-S cells with human OX40
[5] = biological target: recombinant human OX40 (Acro Biosystems, cat. no. OXO-H5224) (human) (UniProt P43489); test: BLI cross-block; competitor (immobilized 1st Ab): IgG1-CD134-003
[6] = biological target: recombinant human OX40 (Acro Biosystems, cat. no. OXO-H5224) (human) (UniProt P43489); test: BLI cross-block; competitor (immobilized 1st Ab): IgG1-CD134-007
[7] = biological target: recombinant human OX40 (Acro Biosystems, cat. no. OXO-H5224) (human) (UniProt P43489); test: BLI cross-block; competitor (immobilized 1st Ab): IgG1-CD134-012
[8] = biological target: recombinant human OX40 (Acro Biosystems, cat. no. OXO-H5224) (human) (UniProt P43489); test: BLI cross-block; competitor (immobilized 1st Ab): IgG1-CD134-SF2
[9] = biological target: recombinant human OX40 (Acro Biosystems, cat. no. OXO-H5224) (human) (UniProt P43489); test: BLI cross-block; competitor (immobilized 1st Ab): IgG1-CD134-11D4
[10] = biological target: recombinant human OX40 (Acro Biosystems, cat. no. OXO-H5224) (human) (UniProt P43489); test: BLI cross-block; competitor (immobilized 1st Ab): IgG1-CD134-h3C8
[11] = biological target: recombinant human OX40 (Acro Biosystems, cat. no. OXO-H5224) (human) (UniProt P43489); test: BLI cross-block; competitor (immobilized 1st Ab): IgG1-CD134-A4453
[12] = biological target: recombinant human OX40 (Acro Biosystems, cat. no. OXO-H5224) (human) (UniProt P43489); test: BLI cross-block; competitor (immobilized 1st Ab): IgG1-CD134-Hu106
[13] = biological target: cynomolgus monkey OX40, cell surface-expressed (cynomolgus monkey); test: flow cytometry, HEK293F cells with cynomolgus monkey OX40
[14] = biological target: recombinant human OX40 (Acro Biosystems, cat. no. OXO-H5224) (human) (UniProt P43489); test: BLI cross-block; competitor (immobilized 1st Ab): IgG1-CD134-GBR830
[15] = biological target: recombinant human OX40 (Acro Biosystems, cat. no. OXO-H5224) (human) (UniProt P43489); test: BLI cross-block; competitor (immobilized 1st Ab): IgG1-CD134-IBI101
[16] = biological target: recombinant human OX40 (Acro Biosystems, cat. no. OXO-H5224) (human) (UniProt P43489); test: BLI cross-block; competitor (immobilized 1st Ab): IgG1-CD134-RG7888
[17] = biological target: recombinant human OX40 (Acro Biosystems, cat. no. OXO-H5224) (human) (UniProt P43489); test: BLI cross-block; competitor (immobilized 1st Ab): IgG1-CD134-ABBV368
[18] = biological target: recombinant human OX40 (Acro Biosystems, cat. no. OXO-H5224) (human) (UniProt P43489); test: BLI cross-block; competitor (immobilized 1st Ab): IgG1-CD134-49B4-RRE
[19] = biological target: recombinant human OX40 (Acro Biosystems, cat. no. OXO-H5224) (human) (UniProt P43489); test: BLI cross-block; competitor (immobilized 1st Ab): IgG1-CD134-MEDI0562
[20] = biological target: recombinant human OX40 (Acro Biosystems, cat. no. OXO-H5224) (human) (UniProt P43489); test: BLI cross-block; competitor (immobilized 1st Ab): IgG1-CD134-INCAGN1949
[21] = biological target: recombinant human OX40 (Acro Biosystems, cat. no. OXO-H5224) (human) (UniProt P43489); test: BLI cross-block; competitor (immobilized 1st Ab): IgG1-CD134-003-HC6LC2-RR
[22] = biological target: human OX40 with mouse CRD4 (human with mouse CRD4) (UniProt P43489); test: flow cytometry, ExpiCHO-S cells with human OX40 carrying mouse CRD4
[23] = biological target: human OX40 with mouse CRD1 (human with mouse CRD1) (UniProt P43489); test: flow cytometry, ExpiCHO-S cells with human OX40 carrying mouse CRD1
[24] = biological target: human OX40, cell surface-expressed (human) (UniProt P43489); test: flow cytometry, activated CD4+ T cells, donor 1
[25] = biological target: human OX40, cell surface-expressed (human) (UniProt P43489); test: flow cytometry, activated CD4+ T cells, donor 2
[26] = biological target: human OX40, cell surface-expressed (human) (UniProt P43489); test: flow cytometry, activated CD4+ T cells, donor 3
[27] = biological target: human OX40, cell surface-expressed (human) (UniProt P43489); test: flow cytometry, activated CD8+ T cells, donor 1
[28] = biological target: human OX40, cell surface-expressed (human) (UniProt P43489); test: flow cytometry, activated CD8+ T cells, donor 2
[29] = biological target: human OX40, cell surface-expressed (human) (UniProt P43489); test: flow cytometry, activated CD8+ T cells, donor 3
[30] = biological target: human OX40, cell surface-expressed (human) (UniProt P43489); test: flow cytometry, activated CD4+ T cells, mean of 3 donors
[31] = biological target: human OX40, cell surface-expressed (human) (UniProt P43489); test: flow cytometry, activated CD8+ T cells, mean of 3 donors
[32] = biological target: human OX40 with mouse CRD2 (human with mouse CRD2) (UniProt P43489); test: flow cytometry, ExpiCHO-S cells with human OX40 carrying mouse CRD2
[33] = biological target: human OX40 with mouse CRD3 (human with mouse CRD3) (UniProt P43489); test: flow cytometry, ExpiCHO-S cells with human OX40 carrying mouse CRD3
Sequence of human OX40 with mouse CRD3 (human with mouse CRD3) (P43489 other isoform, or with tags, fused parts or gaps limits assumed): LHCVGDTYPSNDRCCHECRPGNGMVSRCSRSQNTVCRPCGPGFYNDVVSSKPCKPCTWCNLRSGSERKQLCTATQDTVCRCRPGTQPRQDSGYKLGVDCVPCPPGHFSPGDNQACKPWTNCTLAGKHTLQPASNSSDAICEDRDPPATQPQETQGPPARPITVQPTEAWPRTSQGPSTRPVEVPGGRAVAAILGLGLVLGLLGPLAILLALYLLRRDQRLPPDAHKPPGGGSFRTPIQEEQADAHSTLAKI

Sequence of human OX40 with mouse CRD4 (human with mouse CRD4) (P43489 other isoform, or with tags, fused parts or gaps limits assumed): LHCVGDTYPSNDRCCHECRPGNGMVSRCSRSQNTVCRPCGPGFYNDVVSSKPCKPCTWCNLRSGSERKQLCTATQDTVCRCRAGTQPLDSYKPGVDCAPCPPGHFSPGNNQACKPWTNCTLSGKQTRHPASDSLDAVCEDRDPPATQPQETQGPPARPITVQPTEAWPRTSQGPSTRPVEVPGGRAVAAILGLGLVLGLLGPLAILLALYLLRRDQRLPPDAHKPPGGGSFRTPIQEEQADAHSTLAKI
Sequence of recombinant human OX40 (Acro Biosystems, cat. no. OXO-H5224) (human) (P43489 29-216 limits assumed): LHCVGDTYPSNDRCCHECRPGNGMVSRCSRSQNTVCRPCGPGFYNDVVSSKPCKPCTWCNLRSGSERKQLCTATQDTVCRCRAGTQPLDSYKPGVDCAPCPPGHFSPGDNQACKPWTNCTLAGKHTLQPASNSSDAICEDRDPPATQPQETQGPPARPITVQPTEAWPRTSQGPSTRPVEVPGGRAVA
Sequence of human OX40, cell surface-expressed (human) (P43489 29-277): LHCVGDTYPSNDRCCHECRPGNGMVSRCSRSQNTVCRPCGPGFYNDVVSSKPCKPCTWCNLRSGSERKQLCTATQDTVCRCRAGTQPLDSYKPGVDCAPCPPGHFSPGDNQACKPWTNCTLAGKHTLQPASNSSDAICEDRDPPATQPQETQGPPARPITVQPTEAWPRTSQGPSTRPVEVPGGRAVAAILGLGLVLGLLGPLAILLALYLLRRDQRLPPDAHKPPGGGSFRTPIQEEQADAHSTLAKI
Sequence of human OX40 with mouse CRD1 (human with mouse CRD1) (P43489 other isoform, or with tags, fused parts or gaps limits assumed): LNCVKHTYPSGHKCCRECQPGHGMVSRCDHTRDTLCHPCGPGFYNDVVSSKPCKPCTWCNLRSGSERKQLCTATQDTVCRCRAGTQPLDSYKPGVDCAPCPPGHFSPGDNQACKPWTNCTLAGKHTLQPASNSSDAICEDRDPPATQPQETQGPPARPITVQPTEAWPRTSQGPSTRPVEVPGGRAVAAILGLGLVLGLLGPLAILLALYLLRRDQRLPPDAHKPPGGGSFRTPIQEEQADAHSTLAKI
Sequence of recombinant cynomolgus monkey OX40 (Acro Biosystems, cat. no. OXO-C5220) (cynomolgus monkey) (P43489 other isoform, or with tags, fused parts or gaps limits assumed): as the sequence (P43489 29-216 limits assumed) above, with H16Q, S29N, S50A, P55A, L70P, A145P, I159T, G173R, G183R, R185P counted along it
Sequence of cynomolgus monkey OX40, cell surface-expressed (cynomolgus monkey) (P43489 other isoform, or with tags, fused parts or gaps limits assumed): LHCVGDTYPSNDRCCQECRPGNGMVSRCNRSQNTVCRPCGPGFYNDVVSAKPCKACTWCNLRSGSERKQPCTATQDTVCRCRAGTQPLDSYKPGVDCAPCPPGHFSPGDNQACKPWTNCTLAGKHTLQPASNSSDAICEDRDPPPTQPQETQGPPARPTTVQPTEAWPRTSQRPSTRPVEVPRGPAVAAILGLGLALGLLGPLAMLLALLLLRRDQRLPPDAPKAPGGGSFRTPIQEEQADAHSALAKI
Sequence of human OX40 with mouse CRD2 (human with mouse CRD2) (P43489 other isoform, or with tags, fused parts or gaps limits assumed): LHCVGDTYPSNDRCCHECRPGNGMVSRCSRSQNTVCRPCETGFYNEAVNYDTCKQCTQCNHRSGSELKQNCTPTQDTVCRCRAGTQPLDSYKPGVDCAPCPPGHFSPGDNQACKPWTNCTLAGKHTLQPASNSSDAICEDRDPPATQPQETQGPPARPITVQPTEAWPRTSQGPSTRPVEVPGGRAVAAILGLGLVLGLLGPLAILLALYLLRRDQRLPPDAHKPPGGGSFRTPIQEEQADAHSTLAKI

| Kd [2] | koff [2] | kon [2] | EC50 (read off the curve) [3] | EC50 (read off the curve) [4] | corrected association response [5] | corrected association response [6] | corrected association response [7] | corrected association response [8] | corrected association response [9] | corrected association response [10] | corrected association response [11] | corrected association response [12] | corrected association response [14] | corrected association response [15] | corrected association response [16] | corrected association response [17] | corrected association response [18] | corrected association response [19] | corrected association response [20] | Binder | further results |
| --- | --- | --- | --- | --- | --- | --- | --- | --- | --- | --- | --- | --- | --- | --- | --- | --- | --- | --- | --- | --- | --- |
| 32 nM | 0.017 s⁻¹ | 510000 M⁻¹ s⁻¹ | 0.05 µg/mL | 0.005 µg/mL | 1.27 nm | 0 nm | 0.87 nm | 0.04 nm | 0.13 nm | -0.03 nm | 0.29 nm | 0 nm | 0.01 nm | 0.01 nm | 0.02 nm | -0.04 nm | 0 nm | -0.01 nm | 0.01 nm | IgG1-CD134-ABBV368 (antibody, INN chains, looked up, V domains shown, IgG1) VH: EVQLVESGGGLVQPGGSLRLSCAASGFTFSRYGMSWVRQAPGKGLELVATINSNGGRTYYPDSVKGRFTISRDNAKNSLYLQMNSLRAEDTAVYYCAREGITTAYAMDYWGQGTTVTVSS VL: DIVMTQSPDSLAVSLGERATINCKASQSVDYDGDSYMHWYQQKPGQPPKLLIYAASILESGVPDRFSGSGSGTDFTLTISSLQAEDVAVYYCQQSNEDPRTFGGGTKVEIK | Kd [1]: 82 nM; koff [1]: 0.019 s⁻¹; kon [1]: 230000 M⁻¹ s⁻¹; EC50 (read off the curve) [13]: 0.05 µg/mL; corrected association response [21]: 1.68 nm; EC50 (read off the curve) [22]: 0.005 µg/mL; EC50 (read off the curve) [23]: 0.005 µg/mL |
| 0.23 nM | 8.4e-05 s⁻¹ | 360000 M⁻¹ s⁻¹ | 0.05 µg/mL | 0.007 µg/mL | 0.66 nm | 0.47 nm | 0.54 nm | 0.01 nm | 0.11 nm | 0.41 nm | 0.47 nm | 0.1 nm | 0.26 nm | 0.23 nm | 0.02 nm | 0.01 nm | 0.02 nm | 0.02 nm | 0.02 nm | IgG1-CD134-RG7888 (antibody, INN chains, looked up, V domains shown, IgG1) VH: EVQLVQSGAEVKKPGASVKVSCKASGYTFTDSYMSWVRQAPGQGLEWIGDMYPDNGDSSYNQKFRERVTITRDTSTSTAYLELSSLRSEDTAVYYCVLAPRWYFSVWGQGTLVTVSS VL: DIQMTQSPSSLSASVGDRVTITCRASQDISNYLNWYQQKPGKAPKLLIYYTSRLRSGVPSRFSGSGSGTDFTLTISSLQPEDFATYYCQQGHTLPPTFGQGTKVEIK | Kd [1]: 0.61 nM; koff [1]: 0.00014 s⁻¹; kon [1]: 240000 M⁻¹ s⁻¹; EC50 [24]: 0.0453 µg/mL; EC50 [25]: 0.0292 µg/mL; EC50 [26]: 0.0316 µg/mL; EC50 [27]: 0.0627 µg/mL; EC50 [28]: 0.0332 µg/mL; EC50 [29]: 0.0393 µg/mL; EC50 [30]: 0.0354 µg/mL; EC50 [31]: 0.0451 µg/mL; EC50 (read off the curve) [13]: 0.05 µg/mL; corrected association response [21]: 1.38 nm; EC50 (read off the curve) [22]: 0.01 µg/mL; EC50 (read off the curve) [23]: 0.02 µg/mL; EC50 (read off the curve) [32]: 0.01 µg/mL |
| 15 nM | 0.0022 s⁻¹ | 150000 M⁻¹ s⁻¹ | 0.06 µg/mL | 0.07 µg/mL | 1.39 nm | 1.14 nm | 0.82 nm | 0.01 nm | 0.14 nm | 0.54 nm | 0.41 nm | 0.69 nm | 0.32 nm | 0.28 nm | 0 nm | -0.02 nm | 0.15 nm | 0 nm | 0 nm | IgG1-CD134-MEDI0562 (antibody, INN chains, looked up, V domains shown, IgG1) VH: QVQLQESGPGLVKPSQTLSLTCAVYGGSFSSGYWNWIRKHPGKGLEYIGYISYNGITYHNPSLKSRITINRDTSKNQYSLQLNSVTPEDTAVYYCARYKYDYDGGHAMDYWGQGTLVTVSS VL: DIQMTQSPSSLSASVGDRVTITCRASQDISNYLNWYQQKPGKAPKLLIYYTSKLHSGVPSRFSGSGSGTDYTLTISSLQPEDFATYYCQQGSALPWTFGQGTKVEIK | Kd [1]: 17 nM; koff [1]: 0.0018 s⁻¹; kon [1]: 110000 M⁻¹ s⁻¹; EC50 (read off the curve) [13]: 0.1 µg/mL; corrected association response [21]: 1.73 nm; EC50 (read off the curve) [22]: 0.06 µg/mL; EC50 (read off the curve) [23]: 0.07 µg/mL; EC50 (read off the curve) [32]: 0.06 µg/mL |
| 67 nM | 0.0077 s⁻¹ | 120000 M⁻¹ s⁻¹ | 0.06 µg/mL | 0.05 µg/mL | 0.97 nm | 0.07 nm | 0.84 nm | 0.19 nm | 0.13 nm | -0.02 nm | 0.28 nm | 0.02 nm | 0.01 nm | 0.02 nm | 0.61 nm | -0.01 nm | 0 nm | 0.33 nm | 0.01 nm | IgG1-CD134-GBR830 (antibody, INN chains, looked up, V domains shown, IgG1) VH: QVTLKESGPALVKPTQTLTLTCSFSGFSLSTSGMGVGWIRQPPGKALEWIAHIWWDDDKYYNTALKTRLTISKDTSKNQVVLTMTNMDPVDTATYYCARIDWDGFAYWGQGTLVTVSS VL: EIVLTQSPATLSLSPGERATLSCRASSSVSYMHWYQQKPGQAPRPWIYATSNRATGIPARFSGSGSGTDYTLTISSLEPEDFAVYYCQQWSSNPWTFGQGTKVEIK | corrected association response [21]: 1.08 nm; EC50 (read off the curve) [22]: 0.06 µg/mL; EC50 (read off the curve) [23]: 0.06 µg/mL; EC50 (read off the curve) [33]: 0.06 µg/mL |
